Molecular target: the molecule itself
Assay: ITC

B1: HDP1 DNA-binding domain (HDP1-DBD), aa2991-3078 (domain or fragment, P. falciparum, UniProt A0A2I0C2C6 2991-3078, looked up)
chain: SEVQVSNINTPSSYNISARRRRRIGNNGPPSAEELNRLLNIQHLTIPEIATIYGVHRTTIARWCNIRNITSNSMNNSPGKRRKNEDNK
- binding result: binds

From paper doi:10.1101/2020.10.26.352583 (bioRxiv, 2020)
